± gives the uncertainty stated by the source.
Assay: protein stability index of a GFP-peptide fusion (yeast GPS) (PSI 1-4); higher = more stable; sorted into four equal gates, so the index is relative within each strain
Outline: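 Tiled 17-residue yeast protein peptides were fused downstream of GFP in a plasmid that also expresses Cherry, and the pooled library was carried in yeast. Mid-log cultures in leucine-free medium were sorted into four equal gates by GFP/Cherry fluorescence ratio, and plasmids from each gate were PCR-amplified and Illumina-sequenced, with reads assigned to strains by barcodes. The protein stability index for each peptide was each gate's read frequency times its gate number, summed.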

NECIEERVPKTQLDKLR [SMB1]
protein stability index (doa10∆): 3.1 ± 0.051 | protein stability index (pdr5∆): 3.07 ± 0.062 | protein stability index (san1∆): 3.136 ± 0.03 | protein stability index (ubr1∆): 3.24 ± 0.046

HSDRYHRVAENWRKQKG [RPL32]
protein stability index (pdr5∆): 2.99 ± 0.2 | protein stability index (ubr1∆): 2.6 ± 0.23

EAEFSLRELSCCINAAF [RRP46]
protein stability index (doa10∆): 2.63 ± 0.053 | protein stability index (pdr5∆): 2.83 ± 0.064 | protein stability index (san1∆): 2.76 ± 0.047 | protein stability index (ubr1∆): 2.97 ± 0.056

LWPVAIGLIALSATGTR [YJR042W/NUP85]
protein stability index (doa10∆): 1.75 ± 0.25 | protein stability index (san1∆): 1.36 ± 0.23

KLWRKIARLYSCISISD [RRI2]
protein stability index (doa10∆): 2.87 ± 0.11 | protein stability index (pdr5∆): 2.1 ± 0.075 | protein stability index (san1∆): 2.69 ± 0.064 | protein stability index (ubr1∆): 1.61 ± 0.038

LGYNFDGSAIEDDDIRS [SNF5]
protein stability index (doa10∆): 3.39 ± 0.086 | protein stability index (pdr5∆): 3.26 ± 0.072 | protein stability index (san1∆): 3.35 ± 0.068 | protein stability index (ubr1∆): 3.35 ± 0.05

GKDLSPAINYTKLKNAV [QCR2]
protein stability index (doa10∆): 1.91 ± 0.064 | protein stability index (pdr5∆): 1.64 ± 0.06 | protein stability index (san1∆): 2.15 ± 0.094 | protein stability index (ubr1∆): 1.54 ± 0.048

FSGKGVHKLRHYLVNLT [GRR1]
protein stability index (doa10∆): 1.28 ± 0.037 | protein stability index (pdr5∆): 1.44 ± 0.034 | protein stability index (san1∆): 1.39 ± 0.07 | protein stability index (ubr1∆): 1.45 ± 0.029

HVRCGTAFALGIACAGK [RPN2]
protein stability index (doa10∆): 1.27 ± 0.081 | protein stability index (pdr5∆): 1.58 ± 0.13 | protein stability index (san1∆): 1.46 ± 0.23 | protein stability index (ubr1∆): 1.53 ± 0.076

QAVNNLIKTLSTLHMLG [RPP1]
protein stability index (doa10∆): 2.5 ± 0.053 | protein stability index (pdr5∆): 2.45 ± 0.058 | protein stability index (san1∆): 2.38 ± 0.071 | protein stability index (ubr1∆): 2.47 ± 0.042

CPNSTGAELRSVCTEAG [RPT1]
protein stability index (doa10∆): 1.54 ± 0.053 | protein stability index (pdr5∆): 1.56 ± 0.058 | protein stability index (san1∆): 1.65 ± 0.098 | protein stability index (ubr1∆): 1.55 ± 0.047

NVVLVTNDRLNREAATK [DIS3]
protein stability index (doa10∆): 2.33 ± 0.086 | protein stability index (pdr5∆): 2.9 ± 0.088 | protein stability index (san1∆): 1.89 ± 0.21 | protein stability index (ubr1∆): 2.37 ± 0.074

ADLESFANNHFLNSNAV [COR1]
protein stability index (doa10∆): 2.63 ± 0.11 | protein stability index (pdr5∆): 2.87 ± 0.074 | protein stability index (san1∆): 2.99 ± 0.056 | protein stability index (ubr1∆): 2.71 ± 0.082

SCEVEEIGLLGGRYVYP [SNU114]
protein stability index (doa10∆): 3.27 ± 0.092 | protein stability index (pdr5∆): 3.04 ± 0.066 | protein stability index (san1∆): 2.85 ± 0.065 | protein stability index (ubr1∆): 2.8 ± 0.06

FTQLKKNIPKTRYNRDY [SNU114]
protein stability index (doa10∆): 2.48 ± 0.052 | protein stability index (pdr5∆): 2.59 ± 0.056 | protein stability index (san1∆): 2.98 ± 0.04 | protein stability index (ubr1∆): 2.79 ± 0.051

PFPQYPAGMNETPKSNN [ITC1]
protein stability index (doa10∆): 2.7 ± 0.1 | protein stability index (pdr5∆): 2.8 ± 0.14 | protein stability index (san1∆): 2.75 ± 0.087 | protein stability index (ubr1∆): 3.01 ± 0.089

PKNVPTSKWLNSITSGG [YDL116W/NUP84]
protein stability index (doa10∆): 2.35 ± 0.072 | protein stability index (pdr5∆): 2.56 ± 0.068 | protein stability index (san1∆): 2.23 ± 0.14 | protein stability index (ubr1∆): 2.6 ± 0.064

RNSLETKLTTCKRELAF [YIL149C/MLP2]
protein stability index (doa10∆): 2.09 ± 0.068 | protein stability index (pdr5∆): 1.99 ± 0.077 | protein stability index (san1∆): 1.88 ± 0.09 | protein stability index (ubr1∆): 2.19 ± 0.053

FLRTMKLTSEETVFNYR [GRR1]
protein stability index (doa10∆): 3.11 ± 0.066 | protein stability index (pdr5∆): 2.81 ± 0.067 | protein stability index (san1∆): 3 ± 0.06 | protein stability index (ubr1∆): 3.02 ± 0.052

DKIAVAVAGLTADAEIL [PRE9]
protein stability index (doa10∆): 1.5 ± 0.098 | protein stability index (pdr5∆): 1.65 ± 0.077 | protein stability index (san1∆): 1.25 ± 0.21 | protein stability index (ubr1∆): 2.1 ± 0.075

YSSWSAQTIGRNSKTVR [PRE6]
protein stability index (doa10∆): 2.62 ± 0.14 | protein stability index (pdr5∆): 2.9 ± 0.14 | protein stability index (san1∆): 2.91 ± 0.12 | protein stability index (ubr1∆): 2.85 ± 0.098

NLYDGAEHKYMPYTINE [BRR2]
protein stability index (doa10∆): 3.08 ± 0.071 | protein stability index (pdr5∆): 3.05 ± 0.071 | protein stability index (san1∆): 3.13 ± 0.048 | protein stability index (ubr1∆): 3.28 ± 0.062

PKIETNVYVGMTDMQIQ [ISW2]
protein stability index (doa10∆): 2.96 ± 0.091 | protein stability index (pdr5∆): 2.99 ± 0.091 | protein stability index (san1∆): 3.04 ± 0.069 | protein stability index (ubr1∆): 3.29 ± 0.11

SFFSGLSPPEFLFHAIS [RPO31]
protein stability index (doa10∆): 2.07 ± 0.044 | protein stability index (pdr5∆): 1.9 ± 0.05 | protein stability index (san1∆): 1.93 ± 0.11 | protein stability index (ubr1∆): 1.91 ± 0.041

KNHFRKHWQERVKVHFD [RPL13A]
protein stability index (doa10∆): 1.3 ± 0.037 | protein stability index (pdr5∆): 1.71 ± 0.05 | protein stability index (san1∆): 1.47 ± 0.083 | protein stability index (ubr1∆): 1.54 ± 0.038

TNAFLDSLTRAVKDQQK [SNF2]
protein stability index (doa10∆): 2.46 ± 0.072 | protein stability index (pdr5∆): 2.47 ± 0.071 | protein stability index (san1∆): 2.68 ± 0.049 | protein stability index (ubr1∆): 2.56 ± 0.046

AMFAALQQKQQQRFQAL [SWI1]
protein stability index (doa10∆): 1.36 ± 0.051 | protein stability index (pdr5∆): 1.62 ± 0.053 | protein stability index (san1∆): 1.3 ± 0.12 | protein stability index (ubr1∆): 1.62 ± 0.038

ACVPLLPPPEDVAFLKT [RPN1]
protein stability index (doa10∆): 2.65 ± 0.053 | protein stability index (pdr5∆): 2.4 ± 0.053 | protein stability index (san1∆): 2.79 ± 0.043 | protein stability index (ubr1∆): 2.65 ± 0.048

DINTIKLQLSFVLQMVG [SRP72]
protein stability index (doa10∆): 1.26 ± 0.092 | protein stability index (pdr5∆): 1.88 ± 0.066 | protein stability index (san1∆): 1.32 ± 0.11 | protein stability index (ubr1∆): 1.57 ± 0.062

LGEIPNPMKKHKPNEGR [SIR4]
protein stability index (doa10∆): 2.58 ± 0.077 | protein stability index (pdr5∆): 2.55 ± 0.086 | protein stability index (san1∆): 2.8 ± 0.062 | protein stability index (ubr1∆): 2.88 ± 0.04

IPHIFYSLHQIRKDPNN [CSE2]
protein stability index (doa10∆): 2.7 ± 0.11 | protein stability index (pdr5∆): 2.61 ± 0.071 | protein stability index (san1∆): 2.5 ± 0.058 | protein stability index (ubr1∆): 2.67 ± 0.042

EFIPPDPTKVTEFEFYL [SSN8]
protein stability index (doa10∆): 3.04 ± 0.055 | protein stability index (pdr5∆): 2.85 ± 0.039 | protein stability index (san1∆): 2.88 ± 0.051 | protein stability index (ubr1∆): 2.68 ± 0.031

TIVSNVEEKPGDRGALA [RPL2A]
protein stability index (doa10∆): 3.16 ± 0.095 | protein stability index (pdr5∆): 3.1 ± 0.075 | protein stability index (san1∆): 3.37 ± 0.058 | protein stability index (ubr1∆): 3.4 ± 0.12

DGENDKKEATKPAFSFG [YLR335W/NUP2]
protein stability index (doa10∆): 2.59 ± 0.048 | protein stability index (pdr5∆): 2.21 ± 0.043 | protein stability index (san1∆): 2.79 ± 0.041 | protein stability index (ubr1∆): 2.9 ± 0.033

QLAIRNDDELNKLLGNV [HTA1]
protein stability index (doa10∆): 3.31 ± 0.14 | protein stability index (pdr5∆): 3.38 ± 0.071 | protein stability index (san1∆): 3.23 ± 0.064 | protein stability index (ubr1∆): 3.43 ± 0.078

PSYSPTSPGYSPGSPAY [RPO21]
protein stability index (doa10∆): 2.52 ± 0.067 | protein stability index (pdr5∆): 2.27 ± 0.053 | protein stability index (san1∆): 2.33 ± 0.1 | protein stability index (ubr1∆): 2.02 ± 0.043

PIVEDRRVKQLDDITDS [SIR4]
protein stability index (pdr5∆): 1.49 ± 0.19 | protein stability index (san1∆): 1.31 ± 0.21 | protein stability index (ubr1∆): 1.64 ± 0.12

QYNIPPEREVLVRELYQ [RRP6]
protein stability index (doa10∆): 2.52 ± 0.061 | protein stability index (pdr5∆): 2.15 ± 0.089 | protein stability index (san1∆): 2.37 ± 0.14 | protein stability index (ubr1∆): 2.17 ± 0.083

YSPKQDEQKHNENENSR [RPO21]
protein stability index (doa10∆): 2.69 ± 0.059 | protein stability index (pdr5∆): 2.54 ± 0.064 | protein stability index (san1∆): 2.63 ± 0.07 | protein stability index (ubr1∆): 2.67 ± 0.056

IGIDPPRGVLLYGPPGT [RPT3]
protein stability index (doa10∆): 3.04 ± 0.088 | protein stability index (pdr5∆): 2.58 ± 0.1 | protein stability index (san1∆): 2.89 ± 0.081 | protein stability index (ubr1∆): 2.74 ± 0.073

KVENLDYMYENGKLTSA [YML031W/NDC1]
protein stability index (doa10∆): 3.59 ± 0.25 | protein stability index (pdr5∆): 3.3 ± 0.12 | protein stability index (san1∆): 3.04 ± 0.12

LLRFNGVERLIPVGDNT [PRE4]
protein stability index (doa10∆): 1.58 ± 0.068 | protein stability index (pdr5∆): 1.73 ± 0.07 | protein stability index (san1∆): 1.53 ± 0.13 | protein stability index (ubr1∆): 1.86 ± 0.093

ASISLAIGYPTLPSVGH [RPP0]
protein stability index (doa10∆): 2.66 ± 0.075 | protein stability index (pdr5∆): 2.73 ± 0.059 | protein stability index (san1∆): 2.86 ± 0.11 | protein stability index (ubr1∆): 2.62 ± 0.049

GYLDDSEILIISSLMFD [IRR1]
protein stability index (doa10∆): 2.79 ± 0.071 | protein stability index (pdr5∆): 2.91 ± 0.06 | protein stability index (san1∆): 2.89 ± 0.07 | protein stability index (ubr1∆): 2.75 ± 0.046

DLAFGGEANKHHWEDLQ [RPN5]
protein stability index (doa10∆): 3.09 ± 0.12 | protein stability index (pdr5∆): 3.31 ± 0.16 | protein stability index (san1∆): 3.07 ± 0.11 | protein stability index (ubr1∆): 3.21 ± 0.091

RSMIEHARTAAVTHNLY [PUP2]
protein stability index (doa10∆): 2.16 ± 0.13 | protein stability index (pdr5∆): 2.98 ± 0.22 | protein stability index (san1∆): 2.46 ± 0.13 | protein stability index (ubr1∆): 2.67 ± 0.083

PAPSIPSTGFKFSLPFE [YLR335W/NUP2]
protein stability index (doa10∆): 2.53 ± 0.1 | protein stability index (pdr5∆): 2.94 ± 0.072 | protein stability index (san1∆): 2.92 ± 0.088 | protein stability index (ubr1∆): 3.05 ± 0.086

NLVVSGPPQSLYGLNLT [FAS1]
protein stability index (doa10∆): 2.69 ± 0.071 | protein stability index (pdr5∆): 2.35 ± 0.059 | protein stability index (san1∆): 2.51 ± 0.075 | protein stability index (ubr1∆): 2.45 ± 0.043

VKEMEPKQSDEYLKRVS [SIR3]
protein stability index (doa10∆): 2.69 ± 0.056 | protein stability index (pdr5∆): 2.74 ± 0.057 | protein stability index (san1∆): 3.05 ± 0.05 | protein stability index (ubr1∆): 2.54 ± 0.076

VRDPWSIDFRTYRCSIK [SRB2]
protein stability index (doa10∆): 2.35 ± 0.11 | protein stability index (pdr5∆): 2.41 ± 0.12 | protein stability index (san1∆): 1.47 ± 0.13 | protein stability index (ubr1∆): 2.31 ± 0.083

LSTLEPSTSITLAERQQ [RPN9]
protein stability index (doa10∆): 2.9 ± 0.055 | protein stability index (pdr5∆): 2.91 ± 0.058 | protein stability index (san1∆): 2.58 ± 0.062 | protein stability index (ubr1∆): 2.86 ± 0.036

WDYLQLTVAMYINSDSV [RPO31]
protein stability index (doa10∆): 1.32 ± 0.071 | protein stability index (pdr5∆): 1.34 ± 0.086 | protein stability index (san1∆): 1.64 ± 0.25 | protein stability index (ubr1∆): 1.58 ± 0.071

From the supplement of paper PMC9732359
